Source: patent US20120027773A1 (AVEO PHARMACEUTICALS, published 2012)

Experiments:
[1] = biological target: T1, human wild-type RON (cell surface) (human, UniProt Q04912 25-1400); assay: FACS, 10 ug/ml antibody, PC3 cells, 4 C
T1 construct: whole, on cells; also called Human RON; wt RON
Procedure: Binding to cell surface wild-type RON and delta 160 RON at 4° C. was determined for antibodies 07F01, 12B11, 17F06, 18H09, and 29B06, using FACS. Cells expressing wild-type RON (PC3), and cells expressing delta 160 RON (HT-29), were harvested using cell dissociation buffer (Invitrogen), washed twice with FACS buffer (0.5% BSA PBS) and treated with CytoQ Antibody diluent and FC receptor block (Innovex). Purified antibodies were diluted at a concentration of 10 μg/ml, in FACS buffer. Cells were incubated with 100 μl of antibody mix for one hour, washed with FACS buffer three times, and incubated for 45 minutes with goat anti-mouse PE conjugated antibody (Jackson Immunoresearch Laboratories). Cells were washed three times with FACS buffer, resuspended in 300 μl of FACS buffer and analyzed using a Beckman Coulter Cytomics FC 500 FACS instrument.

[2] = biological target: T2, recombinant human RON SEMA and PSI domains (human, UniProt Q04912 25-571); assay: ECL competition, MSP binding to coated hRON SEMA+PSI; competitor MSP; average n=3
T2 construct: domain: SEMA+PSI; Commercial protein (R&D Systems); also called rhRON SEMA+PSI; hRON SEMA+PSI
Procedure: The biochemical neutralization assay measures inhibition of MSP binding to hRON by antibodies in hybridoma supernatants, using electrochemiluminescence (ECL). MA2400 96-well high binding plates (Meso Scale Discovery) were coated with 25 μl of 0.42 μg/mL hRON SEMA+PSI (an N-terminal portion of the ECD of hRON; R&D Systems) in PBS for one hour at room temperature with agitation. The plates were washed four times with PBS+0.1% Tween-20 (PBST), and blocked with 150 μl of charcoal-stripped fetal bovine serum (FBS) (Gibco). The hybridoma supernatant were added and incubated for 45 minutes at room temperature. After incubation, 5 μl of MSP (3 μg/mL) in charcoal stripped FBS was added to each well, and incubated for 45 minutes. The plate was washed four times with PBST, and 25 μl of 1 μg/mL biotinylated anti-MSP antibody (R&D Systems) was added to the plates for one hour at room temperature with agitation. The plates were washed four times with PBST, and incubated with 25 μl of 1 μg/mL ST-streptavidin (Meso Scale Discovery) for one hour at room temperature with agitation. The plates were washed four times with PBST, and 150 μl read buffer (Meso Scale Discovery) was added to each well before the plates were analyzed on a Sector Imager 2400 (Meso Scale Discovery) instrument. Antibodies 07F01, 18H09 and 29B06 each blocked MSP binding to hRON SEMA+PSI in this neutralization assay.
Antibodies 07F01, 12B11, 17F06, 18H09, and 29B06 were tested for inhibition of MSP binding to hRON SEMA+PSI, as measured by electrochemiluminescence (ECL) assay as described in Example 3. The antibodies (concentration range: 0.006-10 μg/mL) were incubated for 45 minutes at room temperature.

B1: 07F01 (antibody, mouse IgG1, kappa, V domains shown)
VH: EVKLLESGGGLVQPGGSLKLSCAASGFDFSRHWMSWVRLAPGKGLEWIAEINPDSRTINYTPSLKEKFIISRDNAKNSLFLQMNRVRSEDTALYYCARRVRIHYYGAMDCWGQGTSVTVSS
VL: DIVLTQSQKIVSTSVGARVSVTCKASQNVGSSLVWYQQKPGQSPKTLIYSASFRYSGVPDRFTGSGSGTDFTLTISNVQSEDLADYFCQQYNNYPLTFGAGTKLELKR
notes: Murine hybridoma monoclonal, IgG1/kappa; also called mu07F01; antibody 07F01
- PC3 % cell surface binding [1]: 99.3%
- IC50 [2]: 260 pM

B2: 29B06 (antibody, mouse IgG1, kappa)
heavy: EVQLQESGPSLVKPSQTLSLTCSVTGDSITSGYWNWIRKFPGNKLEYMGYISYSGKTYYNPSLKSRISITRDTSKNHYYLQLISVTAEDTATYYCARSKYDYAMDYWGQGTSVTVSSAKTTPPSVYPLAPGSAAQTNSMVTLGCLVKGYFPEPVTVTWNSGSLSSGVHTFPAVLQSDLYTLSSSVTVPSSTWPSETVTCNVAHPASSTKVDKKIVPRDCGCKPCICTVPEVSSVFIFPPKPKDVLTITLTPKVTCVVVDISKDDPEVQFSWFVDDVEVHTAQTQPREEQFNSTFRSVSELPIMHQDWLNGKEFKCRVNSAAFPAPIEKTISKTKGRPKAPQVYTIPPPKEQMAKDKVSLTCMITDFFPEDITVEWQWNGQPAENYKNTQPIMDTDGSYFVYSKLNVQKSNWEAGNTFTCSVLHEGLHNHHTEKSLSHSPGK
light: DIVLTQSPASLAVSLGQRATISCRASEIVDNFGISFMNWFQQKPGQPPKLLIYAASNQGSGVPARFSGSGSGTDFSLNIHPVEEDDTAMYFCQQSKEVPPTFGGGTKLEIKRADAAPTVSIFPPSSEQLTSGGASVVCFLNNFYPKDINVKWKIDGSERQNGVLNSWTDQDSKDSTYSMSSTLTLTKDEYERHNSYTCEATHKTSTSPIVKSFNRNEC
notes: Murine hybridoma monoclonal, IgG1/kappa; also called mu29B06; antibody 29B06
- PC3 % cell surface binding [1]: 99.1%
- IC50 [2]: 1110 pM
